3 molecules from paper PMC6400076 (Frontiers in Microbiology, 2019) can be followed below.

One data set concerns the target T1, SpGAPDH (Streptococcus pyogenes, UniProt P68777).
T1 construct: gene gap

The next data set deals with T2, AvGAPDH (Fannyhessea vaginae, UniProt F1T6A5).
T2 construct: gene gap; recombinant, expressed and purified by similar protocols as previously described, homotetramer
The format is biochemical.

Data set [1] concerns NC(=O)c1ccc[n+]([C@@H]2O[C@H](COP(=O)(O)OP(=O)(O)OC[C@H]3O[C@@H](n4cnc5c(N)ncnc54)[C@H](O)[C@@H]3O)[C@@H](O)[C@H]2O)c1. As to the kind of experiment: purified protein. As to conditions: 5 mM G3P, 50 mM Pi, pH 8.5, 25°C.
The subject of another data set is O=C[C@H](O)COP(=O)(O)O. As to the kind of experiment: purified protein. As to conditions: 2 mM NAD+, 50 mM Pi, pH 8.5, 25°C.

T1 sequence (P68777 whole entry): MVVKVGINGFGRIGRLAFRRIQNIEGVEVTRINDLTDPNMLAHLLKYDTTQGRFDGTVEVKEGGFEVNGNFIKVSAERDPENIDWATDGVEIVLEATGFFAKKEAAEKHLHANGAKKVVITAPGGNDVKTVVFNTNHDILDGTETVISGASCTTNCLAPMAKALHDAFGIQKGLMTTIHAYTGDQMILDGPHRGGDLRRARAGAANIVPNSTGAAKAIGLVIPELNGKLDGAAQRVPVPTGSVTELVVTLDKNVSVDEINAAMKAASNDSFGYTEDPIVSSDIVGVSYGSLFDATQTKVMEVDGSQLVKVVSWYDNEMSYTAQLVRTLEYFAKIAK
T2 sequence (F1T6A5 entry or part of it): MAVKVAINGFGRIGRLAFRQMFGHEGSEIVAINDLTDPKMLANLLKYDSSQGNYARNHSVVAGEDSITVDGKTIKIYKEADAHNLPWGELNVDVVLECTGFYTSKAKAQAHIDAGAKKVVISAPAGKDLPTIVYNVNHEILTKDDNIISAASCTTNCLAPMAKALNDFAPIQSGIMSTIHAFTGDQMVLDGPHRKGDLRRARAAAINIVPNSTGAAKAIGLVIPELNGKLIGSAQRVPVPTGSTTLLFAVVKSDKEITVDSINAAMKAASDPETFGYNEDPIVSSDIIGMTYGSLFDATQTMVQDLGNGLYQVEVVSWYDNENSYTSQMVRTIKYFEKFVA

Usually Ki stands for the equilibrium dissociation constant of an inhibitor or competing ligand from its target. Consider `CCCCCCCCCCCCCCCc1cccc(O)c1C(=O)O` [anacardic acid, 6-pentadecylsalicylic acid], for which the results for the Ki on SpGAPDH and on AvGAPDH were 3.3 ± 0.3 µM and 1.25 ± 0.08 µM, respectively.
Take `COc1cc(/C=C/C(=O)CC(=O)/C=C/c2ccc(O)c(OC)c2)ccc1O` [curcumin]: the Ki at SpGAPDH came to 38 ± 4 µM; on AvGAPDH, 39 ± 3 µM.
In general, Km refers to the concentration of substrate that gives half-maximal velocity. A word on the Vmax: it is the rate approached at saturating substrate. What is called kcat is the maximal rate divided by the concentration of active sites. By kcat/Km is commonly meant the second-order rate constant that governs catalysis at low substrate concentration. Consider “SpGAPDH (Streptococcus pyogenes MGAS8232)”, for which, in data set [1], the Michaelis-Menten constant (Km) is 280 ± 30 µM, the Vmax came out at 2.24e+06 µM/min/mg and the kcat worked out at 3730 ± 100 s⁻¹. Further, in the data set with O=C[C@H](O)COP(=O)(O)O, the Km turned out to be 2800 ± 300 µM, the Vmax came out at 3.67e+06 µM/min/mg, the kcat is 6110 ± 260 s⁻¹ and the kcat/Km was 2.18e+06 ± 320000 M⁻¹ s⁻¹.
